One molecule from US20050175986A1 (SMIT KLINE BEECHAM, published 2005) can be followed below.

One may read the EC50 as the concentration needed to bring the measured effect to its halfway point.

The experiment deals with T1, recombinant F protein of Respiratory Syncytial Virus (Respiratory Syncytial Virus, UniProt P03420 26-524).
T1 construct: Recombinant F-protein as described in P. Tsui et al, J. Immunol; 157:772-780 (1996); Coated on plastic in the ELISAs; also called recombinant RSV F-protein; rF protein
T1 sequence (P03420 26-524 limits assumed): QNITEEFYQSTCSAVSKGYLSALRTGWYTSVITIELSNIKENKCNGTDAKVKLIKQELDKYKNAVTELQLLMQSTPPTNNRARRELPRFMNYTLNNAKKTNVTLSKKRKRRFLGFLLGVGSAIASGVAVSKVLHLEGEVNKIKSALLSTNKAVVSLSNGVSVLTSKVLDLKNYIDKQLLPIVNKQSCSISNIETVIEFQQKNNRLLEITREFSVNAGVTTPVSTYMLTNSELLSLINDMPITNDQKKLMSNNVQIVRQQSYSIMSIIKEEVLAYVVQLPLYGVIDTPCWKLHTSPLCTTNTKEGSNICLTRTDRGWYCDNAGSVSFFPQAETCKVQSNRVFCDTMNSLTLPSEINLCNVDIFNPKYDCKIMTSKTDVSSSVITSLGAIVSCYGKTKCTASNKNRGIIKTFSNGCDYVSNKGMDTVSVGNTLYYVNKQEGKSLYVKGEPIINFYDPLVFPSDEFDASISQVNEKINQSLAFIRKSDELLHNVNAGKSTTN
The experiment in a line: solid phase ELISA on coated recombinant F protein. Here is the method:
Binding of the Gλ-1 mABs to recombinant F protein was measured in a standard solid phase ELISA. Antigen diluted in PBS pH 7.0 was adsorbed onto polystyrene round-bottom microplates (Dynatech, Immunolon II) for 18 hours. Wells were then aspirated and blocked with 0.5% boiled casein (BC) in PBS containing 1% Tween 20 […] for two hours. Antibodies (50 μl/well) were diluted to varying concentrations in PBS/0.5% BC containing 0.025% Tween 20 and incubated in antigen coated wells for one hour. Plates were washed three times with PBS containing 0.05% Tween 20, using a Titertek 320 microplate washer, followed by addition of HRP-labelled protein A/G (50 μl) diluted 1:5000. After washing three times, TMBlue substrate (TSI, #TM102) was added and plates were incubated an additional 15 minutes. The reaction was stopped by addition of 1 N H₂SO₄ and absorbance read at 450 nm using a Biotek ELISA reader.
Binding of the Gλ-1 mABs to rF protein was inhibited by mAb B4, for which the F protein amino acids critical for antigen recognition are amino acids 268, 272 and 275 of SEQ ID NO: 20). Binding of the Gλ-1 mABs to rF protein was not inhibited by mAb RSMU19, for which F protein amino acid 429 of SEQ ID NO: 20 is critical for antigen recognition.
For orientation: An ELISA detects its analyte on a solid surface through an enzyme-linked reagent.

B1: Gλ-1B monoclonal antibody (antibody, human IgG1, V domains shown)
VH: EVQLVESGGGLVQPGGSLRLSCAASGVSLSGYKMNWVRQAPGKGLEWVSSITGMSNYIHYSDSVKGRFTISRDNAMNSLYLQMNSLTAEDTGVYYCATQPGELAPFDHWGQGTLVTVSS
VL: QSVLTQPPSVSAAPGQKVTISCTGSSSNLGAGYDVHWYRQLPGTAPKLLIYDNNNRPSGVPDRFSGSKSGPSASLAISGLQAEDEADYYCQSYDSSLNGYVFGTGTQLTVLG
notes: Full length human IgG1, lambda light chain; made in COS and CHO cells; also called Gλ-1 mAB B; mAB B
With B1, the EC50 was 2.6 ng/mL.
